We go through 4 molecules from patent US20200317768A1 (published 2020).

Where only a bound is given, the exact number is not on record here.

In experiment [1] the target is T1, human FcγRIIIaV extracellular domain with C-terminal His-tag (human, UniProt P08637 17-208).
T1 construct: also called FcgRIIIaV; not shown: His-tag added to the C-terminus
The experiment in a line: SPR (BIACORE T200/4000), antibody captured, FcγR as analyte, 25 C.

The target in experiment [2] is T2, cyno FcγRIIIaS extracellular domain with C-terminal His-tag (cynomolgus monkey, UniProt A3RFZ7 21-206 (rhesus entry)).
T2 construct: also called FcgRIIIaS; not shown: His-tag added to the C-terminus
T2 sequence (A3RFZ7 21-206): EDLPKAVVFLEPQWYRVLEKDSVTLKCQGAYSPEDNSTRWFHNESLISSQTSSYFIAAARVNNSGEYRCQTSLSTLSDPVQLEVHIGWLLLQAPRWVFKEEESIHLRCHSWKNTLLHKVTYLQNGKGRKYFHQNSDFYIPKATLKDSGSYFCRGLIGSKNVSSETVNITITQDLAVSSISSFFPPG
The experiment is described as above.

The next experiment concerns the target T3, GST-hMSTN 61-160aa (human, UniProt O14793 61-160).
T3 construct: As GST-hMSTN 1-100aa; also called fourth fragment; not shown: GST tag from the pGEX4.1 vector
T3 sequence: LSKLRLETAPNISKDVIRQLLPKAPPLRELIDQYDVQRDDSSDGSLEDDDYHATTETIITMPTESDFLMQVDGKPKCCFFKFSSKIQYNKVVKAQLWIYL
The experiment can be described thus: Western blot on GST tagged fragments. An excerpt: (§1) Fragments of the N-terminal propeptide coding region of human latent myostatin were cloned into a pGEX4.1 vector so as to produce GST tagged propeptide fragments of 100 amino acid each, with 80 amino acid overlap (FIG. 22A). Protein expression was induced in transformed BL21 competent cells with Overnight Express Autoinduction System (Merck Millipore) and protein was extracted using the BUGBUSTER® protein extraction reagent (Novagen).

In another experiment the target is T4, GST-hMSTN 81-180aa (human, UniProt A1C2U3 81-180 (Pongo pygmaeus entry)).
T4 construct: As GST-hMSTN 1-100aa; also called fifth fragment; not shown: GST tag from the pGEX4.1 vector
T4 sequence: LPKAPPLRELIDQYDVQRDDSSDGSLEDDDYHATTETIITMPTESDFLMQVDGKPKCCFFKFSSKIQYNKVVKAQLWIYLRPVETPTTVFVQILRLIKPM
The experiment in a line: Western blot on GST tagged fragments.
Description: as §1

The target of the next experiment is T5, GST-hMSTN 101-200aa (human, UniProt A1C2U3 101-200 (Pongo pygmaeus entry)).
T5 construct: As GST-hMSTN 1-100aa; also called sixth fragment; not shown: GST tag from the pGEX4.1 vector
T5 sequence: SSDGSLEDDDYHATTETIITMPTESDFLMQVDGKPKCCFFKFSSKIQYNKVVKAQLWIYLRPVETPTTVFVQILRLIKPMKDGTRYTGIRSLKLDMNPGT
The experiment in a line: Western blot on GST tagged fragments.
Description: as §1

For the next experiment, the target named is T6, GST-hMSTN 121-220aa (human, UniProt A1C2U3 121-220 (Pongo pygmaeus entry)).
T6 construct: As GST-hMSTN 1-100aa; also called seventh fragment; not shown: GST tag from the pGEX4.1 vector
T6 sequence: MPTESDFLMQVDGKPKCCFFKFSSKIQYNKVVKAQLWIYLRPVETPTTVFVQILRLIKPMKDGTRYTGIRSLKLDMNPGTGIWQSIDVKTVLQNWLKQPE
The experiment in a line: Western blot on GST tagged fragments.
Description: as §1

In another experiment the target is T7, GST-hMSTN 141-241aa (human, UniProt A1C2U3 141-241 (Pongo pygmaeus entry)).
T7 construct: As GST-hMSTN 1-100aa; also called eighth fragment; not shown: GST tag from the pGEX4.1 vector
T7 sequence: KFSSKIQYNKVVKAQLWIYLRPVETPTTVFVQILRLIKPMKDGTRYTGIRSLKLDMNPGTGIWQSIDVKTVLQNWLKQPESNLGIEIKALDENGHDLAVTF
The experiment in a line: Western blot on GST tagged fragments.
Description: as §1

Experiment [3] deals with T8, Human latent myostatin (human, UniProt O14793 25-266; O14793 267-375).
T8 construct: Biotinylated in the ELISAs; also called human myostatin latent form
T8 sequence 1: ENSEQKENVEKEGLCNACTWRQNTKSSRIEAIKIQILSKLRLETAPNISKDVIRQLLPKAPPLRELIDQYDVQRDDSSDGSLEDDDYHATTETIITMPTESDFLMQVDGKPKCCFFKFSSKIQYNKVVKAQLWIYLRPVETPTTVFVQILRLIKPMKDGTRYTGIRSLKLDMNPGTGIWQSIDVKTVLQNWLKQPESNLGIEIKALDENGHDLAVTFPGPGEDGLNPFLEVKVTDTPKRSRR
T8 sequence 2: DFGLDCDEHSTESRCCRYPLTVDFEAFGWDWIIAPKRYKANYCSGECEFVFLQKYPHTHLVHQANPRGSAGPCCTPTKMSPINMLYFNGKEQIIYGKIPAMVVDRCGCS
The experiment can be described thus: SPR (BIACORE), additional dissociation phase at pH5.8 after dissociation at pH7.4. On the procedure:
(§2) Each amino acid in the CDRs was individually mutated to histidine using In-Fusion HD Cloning Kit (Clontech Inc, or Takara Bio company) according to the manufacturer's instructions. […] All histidine-substituted variants were evaluated by a modified BIACORE® assay as compared to that described above. Briefly, an additional dissociation phase at pH5.8 was integrated into the BIACORE® assay immediately after the dissociation phase at pH7.4. This is to assess the pH-dependent dissociation between antibody (Ab) and antigen (Ag) from the complexes formed at pH7.4 as opposed to the corresponding dissociation at pH5.8. The dissociation rate at pH5.8 buffer was determined by processing and fitting data using the Scrubber 2.0 (BioLogic Software) curve fitting software.
(§3) Antibodies with a combination of these mutations in the CDRs were then generated.

The target in experiment [4] is T8, Human latent myostatin. The experiment can be described thus: SPR (BIACORE), additional dissociation phase at pH5.8 after dissociation at pH7.4, Scrubber 2.0 fit. The method, then: as §2, §3

T1 sequence (P08637 17-208 F176V): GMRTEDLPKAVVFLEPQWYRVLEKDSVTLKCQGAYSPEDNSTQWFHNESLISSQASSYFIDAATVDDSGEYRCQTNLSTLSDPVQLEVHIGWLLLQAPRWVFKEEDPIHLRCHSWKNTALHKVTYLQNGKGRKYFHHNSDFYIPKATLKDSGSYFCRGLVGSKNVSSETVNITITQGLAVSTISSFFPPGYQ

B1: M103205H795-MY009/M103202L889-SK1 (antibody, human IgG1, kappa)
heavy: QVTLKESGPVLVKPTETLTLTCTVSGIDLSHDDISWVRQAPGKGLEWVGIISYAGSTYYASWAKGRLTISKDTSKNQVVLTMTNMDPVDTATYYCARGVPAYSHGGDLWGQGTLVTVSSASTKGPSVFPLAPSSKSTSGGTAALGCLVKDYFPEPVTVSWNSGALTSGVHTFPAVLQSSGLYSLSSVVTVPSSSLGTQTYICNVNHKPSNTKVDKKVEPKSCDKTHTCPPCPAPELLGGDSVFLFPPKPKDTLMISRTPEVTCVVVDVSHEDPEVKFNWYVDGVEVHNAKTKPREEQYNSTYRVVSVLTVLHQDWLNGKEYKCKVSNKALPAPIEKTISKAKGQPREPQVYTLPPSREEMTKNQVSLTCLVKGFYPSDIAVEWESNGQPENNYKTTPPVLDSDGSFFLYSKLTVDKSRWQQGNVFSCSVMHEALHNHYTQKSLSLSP
light: DIVMTQSPATLSLSPGERATLSCTSSQSVYHANWLSWFQQKPGQPPKLLIYWASTLAYGVPSRFSGSGSGTDFTLTISSLQPEDAATYYCAGGYGGGRYAFGQGTKVEIKRTVAAPSVFIFPPSDEQLKSGTASVVCLLNNFYPREAKVQWKVDNALQSGNSQESVTEQDSKDSTYSLSSTLTLSKADYEKHKVYACEVTHQGLSSPVTKSFNRGEC
notes: SG1 with P238D (EU numbering); also called MS1032LO06-MY009; MS1032LO006-MY009
Regarding B1, the binding result in experiment [1] and in experiment [2] was “binds” throughout.

B2: MST1572 (antibody, human IgG1, kappa, V domains shown)
VH: QSVEESGGRLVTPGTPLTLTCTVSGFSLSSYAMSWVRQAPGKGLEWIGIIYGVGSTYYASWAKGRFTISKTSTTVDLKIASPTTEDTATYFCARDDYGWGYTNLWGPGTLVTVSS
VL: QVLTQTPSSVSAAVGGTVTINCQSSQSVYNNNYLAWFQQKPGQPPKLLIYDASKLASGVPSRFKGSGSGTQFTLTISGVQCDDAATYYCQGSYYSSGWYRAFGGGTKVEIKR
For the molecule B2, the binding result with GST-hMSTN 61-160aa, with GST-hMSTN 81-180aa, in the experiment with GST-hMSTN 101-200aa, with GST-hMSTN 121-220aa and in the experiment with GST-hMSTN 141-241aa was “no binding” throughout.

B3: MST1538 (antibody, human IgG1, kappa, V domains shown)
VH: QSLEESGGGLVKPGGTLTLTCKASGIDFSSYYYMCWVRQAPGKGLEWIACIYAGISGSTYYASWAKGRFTISKTSSTTVTLQMTSLTAADTATYFCARDPYHFDYGSLWGPGTLVTVSS
VL: ALVMTQTPASVSAAVGGTVTINCQASQSVYGGNELSWYQQEPGQPPKLLIYSASKLASGVPSRFKGSGSGTQFTLTISGVQCDDAAAYYCAGYRTYSDDDNAFGGGTKVEIKR
For the molecule B3, the binding result with GST-hMSTN 61-160aa, in the experiment with GST-hMSTN 81-180aa, with GST-hMSTN 101-200aa, with GST-hMSTN 121-220aa and with GST-hMSTN 141-241aa was “no binding” in each case.

B4: Ab002 (M103205H001 / M103202L000) (antibody, human IgG1, kappa, V domains shown)
VH: QVTLKESGPVLVKPTETLTLTCTVSGIDLSHYDISWVRQAPGKGLEWVGIISYAGSTYYASWAKGRLTISKDTSKNQVVLTMTNMDPVDTATYYCARGVPAYSTGGDLWGQGTLVTVSS
VL: DIVMTQSPATLSLSPGERATLSCQSSQSVYDNNWLSWFQQKPGQPPKLLIYWASTLASGVPSRFSGSGSGTDFTLTISSLQPEDAATYYCAGGYGGGLYAFGQGTKVEIKR
notes: Histidine-substituted variant of MS1032LO00-SG1
For B4, in the experiment with Human latent myostatin [3], the “fold faster dissociation rate at pH5.8 than the parental antibody Ab001” value is more than 200 fold. For the same molecule, in the experiment with Human latent myostatin [4], the koff stood at 0.00609 s⁻¹.
